# Reference: patent publication US20230406935A1 (F STAR THERAPEUTICS, published 2023)
# Residue numbers refer to the chain shown, from its start.
# B1: FS17-33-316AA/HELD1.3 (bispecific antibody)
# chain 1: QVQLQESGPGLVRPSQTLSLTCTVSGSTFSGYGVNWVRQPPGRGLEWIGMIWGDGNTDYNSALKSRVTMLVDTSKNQFSLRLSSVTAADTAVYYCARERDYRLDYWGQGSLVTVSSASTKGPSVFPLAPSSKSTSGGTAALGCLVKDYFPEPVTVSWNSGALTSGVHTFPAVLQSSGLYSLSSVVTVPSSSLGTQTYICNVNHKPSNTKVDKKVEPKSCDKTHTCPPCPAPEAAGGPSVFLFPPKPKDTLMISRTPEVTCVVVDVSHEDPEVKFNWYVDGVEVHNAKTKPREEQYNSTYRVVSVLTVLHQDWLNGKEYKCKVSNKALPAPIEKTISKAKGQPREPQVYTLPPSRDESGYWVSLTCLVKGFYPSDIAVEWESNGEPQYWAKTTPPVLDSDGSFFLYSKLTVSNWRWQLDAFSCSVMHEALHNHYTQKSLSLSPGK
# chain 2: DIQMTQSPASLSASVGETVTITCRASGNIHNYLAWYQQKQGKSPQLLVYNAKTLADGVPSRFSGSGSGTQYSLKINSLQPEDFGSYYCQHFWSTPRTFGGGTKLEIKRTVAAPSVFIFPPSDEQLKSGTASVVCLLNNFYPREAKVQWKVDNALQSGNSQESVTEQDSKDSTYSLSSTLTLSKADYEKHKVYACEVTHQGLSSPVTKSFNRGEC
# B2: FS17-33-277AA/HELD1.3 (bispecific antibody)
# chain 1: B1 chain 1 with Q416S, A419D
# chain 2: B1 chain 2
# B3: FS17-33-159AA/HELD1.3 (bispecific antibody)
# chain 1: B1 chain 1 with S357H, A419D
# chain 2: B1 chain 2
# B4: FS17-33-239AA/HELD1.3 (bispecific antibody)
# chain 1: B1 chain 1 with N412Q, A419D
# chain 2: B1 chain 2
# B5: FS17-33-266AA/HELD1.3 (bispecific antibody)
# chain 1: B1 chain 1 with Q416R, A419D
# chain 2: B1 chain 2
# B6: FS17-33-166AA/HELD1.3 (bispecific antibody)
# chain 1: B1 chain 1 with S357Y, A419D
# chain 2: B1 chain 2
# B7: FS17-33-163AA/HELD1.3 (bispecific antibody)
# chain 1: B1 chain 1 with S357F, A419D
# chain 2: B1 chain 2
# B8: FS17-33-271AA/HELD1.3 (bispecific antibody)
# chain 1: B1 chain 1 with Q416H, A419D
# chain 2: B1 chain 2
# B9: FS17-33-157AA/HELD1.3 (bispecific antibody)
# chain 1: B1 chain 1 with S357E, A419D
# chain 2: B1 chain 2
# B10: FS17-33-235AA/HELD1.3 (bispecific antibody)
# chain 1: B1 chain 1 with N412A, A419D
# chain 2: B1 chain 2
# B11: FS17-33-161AA/HELD1.3 (bispecific antibody)
# chain 1: B1 chain 1 with S357L, A419D
# chain 2: B1 chain 2
# B12: FS17-33-241AA/HELD1.3 (bispecific antibody)
# chain 1: B1 chain 1 with N412H, A419D
# chain 2: B1 chain 2
# B13: FS17-33-289AA/HelD1.3 mock mAb^2 (bispecific antibody, human IgG1, kappa, L234A L235A)
# heavy: B1 chain 1 with A376V, A419D
# light: B1 chain 2
# notes: also called F17-33-289AA/HelD1.3; F17-33-289AA/HELD1.3
# B14: FS17-33-296AA/HelD1.3 mock mAb^2 (bispecific antibody, human IgG1, kappa, L234A L235A)
# heavy: B1 chain 1 with A376V, L417V, A419D
# light: B1 chain 2
# notes: also called F17-33-296AA/HelD1.3; F17-33-296AA/HELD1.3
# B15: Fcab FS17-33-288 with LALA mutation (designed binder)
# chain: TCPPCPAPEAAGGPSVFLFPPKPKDTLMISRTPEVTCVVVDVSHEDPEVKFNWYVDGVEVHNAKTKPREEQYNSTYRVVSVLTVLHQDWLNGKEYKCKVSNKALPAPIEKTISKAKGQPREPQVYTLPPSRDESGYWVSLTCLVKGFYPSDIVVEWESNGEPQYWAKTTPPVLDSDGSFFLYSKLTVSNWRWQIDDFSCSVMHEALHNHYTQKSLSLSPGK
# B16: Fcab FS17-33-334 with LALA mutation (designed binder)
# chain: B15 chain with V153A, I194L
# B17: Fcab FS17-33-296 with LALA mutation (designed binder)
# chain: B15 chain with I194V
# B18: Fcab FS17-33-289 with LALA mutation (designed binder)
# chain: B15 chain with I194L
# B19: anti-PD-L1 mAb YW243.55.S1 (antibody, V domains shown)
# VH: not shown
# VL: DIQMTQSPSSLSASVGDRVTITCRASQDVSTAVAWYQQKPGKAPKLLIYSASFLYSGVPSRFSGSGSGTDFTLTISSLQPEDFATYYCQQYLFTPPTFGQGTKVEIKR
# B20: FS17-33-453AA/HELD1.3 (bispecific antibody)
# chain 1: QVQLQESGPGLVRPSQTLSLTCTVSGSTFSGYGVNWVRQPPGRGLEWIGMIWGDGNTDYNSALKSRVTMLVDTSKNQFSLRLSSVTAADTAVYYCARERDYRLDYWGQGSLVTVSSASTKGPSVFPLAPSSKSTSGGTAALGCLVKDYFPEPVTVSWNSGALTSGVHTFPAVLQSSGLYSLSSVVTVPSSSLGTQTYICNVNHKPSNTKVDKKVEPKSCDKTHTCPPCPAPEAAGGPSVFLFPPKPKDTLMISRTPEVTCVVVDVSHEDPEVKFNWYVDGVEVHNAKTKPREEQYNSTYRVVSVLTVLHQDWLNGKEYKCKVSNKALPAPIEKTISKAKGQPREPQVYTLPPSRDELGYWVSLTCLVKGFYPSDIAVEWESNGEPQYWAKTTPPVLDSDGSFFLYSKLTVSNWRWQLDDVFSCSVMHEALHNHYTQKSLSLSPGK
# chain 2: B1 chain 2
# B21: FS17-33-457AA/HELD1.3 (bispecific antibody)
# chain 1: B20 chain 1 with L357S, N412Q
# chain 2: B1 chain 2
# B22: FS17-33-458AA/HELD1.3 (bispecific antibody)
# chain 1: B20 chain 1 with L357S, N412H
# chain 2: B1 chain 2
# B23: FS17-33-454AA/HELD1.3 (bispecific antibody)
# chain 1: B20 chain 1 with L357F
# chain 2: B1 chain 2
# B24: FS17-33-461AA/HELD1.3 (bispecific antibody)
# chain 1: B20 chain 1 with L357S, Q416S
# chain 2: B1 chain 2
# B25: FS17-33-455AA/HELD1.3 (bispecific antibody)
# chain 1: B20 chain 1 with L357Y
# chain 2: B1 chain 2
# B26: FS17-33-462AA/HELD1.3 (bispecific antibody)
# chain 1: B20 chain 1 with L357S, D419A
# chain 2: B1 chain 2
# B27: FS17-33-460AA/HELD1.3 (bispecific antibody)
# chain 1: B20 chain 1 with L357S, Q416H
# chain 2: B1 chain 2
# B28: FS17-33-456AA/HELD1.3 (bispecific antibody)
# chain 1: B20 chain 1 with L357S, N412A
# chain 2: B1 chain 2
# B29: FS17-33-459AA/HELD1.3 (bispecific antibody)
# chain 1: B20 chain 1 with L357S, Q416R
# chain 2: B1 chain 2
# Molecular target: T1, Human PD-L1 expressed on cells (human, UniProt Q9NZQ7 19-290)
# T1 sequence (Q9NZQ7 19-290 limits assumed): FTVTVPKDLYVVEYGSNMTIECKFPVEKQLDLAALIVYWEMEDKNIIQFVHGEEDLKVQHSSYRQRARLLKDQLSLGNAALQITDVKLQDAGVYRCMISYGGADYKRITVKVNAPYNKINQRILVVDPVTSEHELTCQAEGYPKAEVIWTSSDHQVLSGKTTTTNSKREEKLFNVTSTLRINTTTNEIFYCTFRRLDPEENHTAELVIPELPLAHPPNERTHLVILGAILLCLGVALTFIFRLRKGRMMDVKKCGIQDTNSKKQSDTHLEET
# Test: cell-based or functional assay
row,DO11.10 EC50 [nM],Binder
1,0.563,B1
2,0.319,B2
3,0.263,B3
4,0.588,B4
5,0.434,B5
6,0.238,B6
7,0.37,B7
8,0.254,B8
9,0.481,B9
10,0.561,B10
11,0.453,B11
12,0.304,B12

# Molecular target: T1, Human PD-L1 expressed on cells
# Test: cell-based or functional assay
# Remark: another data set of the same source
row,Binder,DO11.10 T cell activation assay EC50 [nM]
1,B13,1.55
2,B14,1.12
3,B15,0.137
4,B16,0.381
5,B17,0.166
6,B18,0.228
7,B19,0.257

# Molecular target: T2, Monomeric His-tagged human PD-L1 (Acro biosystems PD1-H5229) (human, UniProt Q9NZQ7 19-238)
# T2 construct: also called hPD-L1-his; PD-L1-his
# T2 sequence (Q9NZQ7 19-238 limits assumed): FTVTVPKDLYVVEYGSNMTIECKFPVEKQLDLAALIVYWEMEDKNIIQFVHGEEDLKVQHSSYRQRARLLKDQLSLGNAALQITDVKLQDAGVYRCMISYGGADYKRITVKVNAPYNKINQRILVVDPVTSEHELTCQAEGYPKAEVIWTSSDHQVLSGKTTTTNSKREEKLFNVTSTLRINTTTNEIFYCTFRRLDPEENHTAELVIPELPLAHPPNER
# Test: off-rate, binding to hPD-L1, mock mAb^2; instrument not stated
row,koff [s⁻¹],Binder
1,0.000303,B20
2,0.000589,B21
3,0.000456,B22
4,0.000269,B23
5,0.000359,B24
6,0.000343,B25
7,0.000899,B26
8,0.000202,B27
9,0.000619,B28
10,0.00038,B29

# Molecular target: T2, Monomeric His-tagged human PD-L1 (Acro …)
# Test: off-rate on PD-L1, mock mAb^2; instrument not given
row,koff [s⁻¹],Binder
1,0.000566,B1
2,0.000415,B2
3,0.000427,B3
4,0.000693,B4
5,0.000377,B5
6,0.000523,B6
7,0.000372,B7
8,0.000518,B8
9,0.000559,B9
10,0.000709,B10
11,0.000578,B11
12,0.000592,B12

# Molecular target: T1, Human PD-L1 expressed on cells
# Test: flow cytometry, HEK293 cells overexpressing the target, anti-human Fc 488
# Description: (§1) Cell binding assays were performed by incubating Fcabs or mAb² proteins with either control HEK293 cells or HEK293 cells overexpressing hPD-L1 or cynomolgus PD-L1 cells for 1 hour at 4° C. Fcab/mAb binding was subsequently detected using an anti-human Fc 488 detection antibody. Fluorescent signal intensities were measured using a FACS canto.
row,Binder,Kd [nM]
1,B13,3.9
2,B14,2.7

# Molecular target: T3, Cynomolgus PD-L1 expressed on HEK 293 cells (cynomolgus, UniProt Q9NZQ7 19-290 (human entry))
# T3 construct: also called cell-expressed cynomolgus PD-L1
# T3 sequence (Q9NZQ7 other isoform, or with tags, fused parts or gaps limits assumed): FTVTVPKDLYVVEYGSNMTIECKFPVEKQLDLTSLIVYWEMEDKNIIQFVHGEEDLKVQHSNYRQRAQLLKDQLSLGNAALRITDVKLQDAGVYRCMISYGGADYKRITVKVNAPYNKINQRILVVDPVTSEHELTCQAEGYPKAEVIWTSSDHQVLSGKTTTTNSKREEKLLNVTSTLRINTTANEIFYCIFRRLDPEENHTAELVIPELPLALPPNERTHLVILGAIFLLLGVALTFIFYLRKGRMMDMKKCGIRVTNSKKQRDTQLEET
# Test: as above
# Description: as §1
row,Binder,Kd [nM]
1,B13,2.2
2,B14,2
